Assay in all cases: ELISA
The target in assay [1] is T1, MMR (UniProt P22897 19-1383).
T1 sequence (looked up): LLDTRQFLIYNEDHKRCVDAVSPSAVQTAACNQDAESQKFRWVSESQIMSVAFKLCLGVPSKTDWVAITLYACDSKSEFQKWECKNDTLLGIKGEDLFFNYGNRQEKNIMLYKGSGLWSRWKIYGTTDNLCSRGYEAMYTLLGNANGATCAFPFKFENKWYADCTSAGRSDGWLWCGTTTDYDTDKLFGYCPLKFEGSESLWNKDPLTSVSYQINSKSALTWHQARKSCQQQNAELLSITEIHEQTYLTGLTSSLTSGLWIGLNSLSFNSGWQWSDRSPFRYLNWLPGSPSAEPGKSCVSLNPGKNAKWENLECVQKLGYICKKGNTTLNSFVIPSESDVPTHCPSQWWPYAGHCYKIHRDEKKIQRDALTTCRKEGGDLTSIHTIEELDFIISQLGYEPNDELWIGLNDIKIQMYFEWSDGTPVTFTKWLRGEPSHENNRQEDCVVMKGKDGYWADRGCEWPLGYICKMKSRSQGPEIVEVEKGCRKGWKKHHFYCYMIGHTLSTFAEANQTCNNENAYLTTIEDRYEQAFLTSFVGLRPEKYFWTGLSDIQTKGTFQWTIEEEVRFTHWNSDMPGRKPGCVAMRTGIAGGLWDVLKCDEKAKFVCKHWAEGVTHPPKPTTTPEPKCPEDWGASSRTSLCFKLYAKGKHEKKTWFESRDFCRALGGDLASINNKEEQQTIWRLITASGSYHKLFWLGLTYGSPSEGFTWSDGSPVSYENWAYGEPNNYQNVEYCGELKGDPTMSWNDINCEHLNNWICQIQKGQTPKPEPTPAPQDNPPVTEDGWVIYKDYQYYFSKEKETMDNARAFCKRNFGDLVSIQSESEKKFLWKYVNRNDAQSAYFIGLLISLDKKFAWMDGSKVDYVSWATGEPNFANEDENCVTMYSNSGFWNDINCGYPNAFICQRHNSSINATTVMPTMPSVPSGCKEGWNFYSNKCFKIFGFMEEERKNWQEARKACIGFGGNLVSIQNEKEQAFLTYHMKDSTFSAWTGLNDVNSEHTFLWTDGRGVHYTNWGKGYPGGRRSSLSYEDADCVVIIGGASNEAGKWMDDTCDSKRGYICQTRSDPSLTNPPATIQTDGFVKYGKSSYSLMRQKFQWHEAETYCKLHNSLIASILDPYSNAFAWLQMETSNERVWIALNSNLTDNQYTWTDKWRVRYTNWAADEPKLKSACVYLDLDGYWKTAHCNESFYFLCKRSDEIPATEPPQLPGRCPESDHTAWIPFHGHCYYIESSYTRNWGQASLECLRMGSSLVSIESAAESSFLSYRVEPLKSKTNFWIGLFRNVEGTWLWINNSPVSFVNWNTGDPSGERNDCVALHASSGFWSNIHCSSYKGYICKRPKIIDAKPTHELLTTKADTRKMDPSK

For assay [2], the target named is MBL (UniProt P11226 21-248).
Chain of MBL (P11226 21-248 limits assumed): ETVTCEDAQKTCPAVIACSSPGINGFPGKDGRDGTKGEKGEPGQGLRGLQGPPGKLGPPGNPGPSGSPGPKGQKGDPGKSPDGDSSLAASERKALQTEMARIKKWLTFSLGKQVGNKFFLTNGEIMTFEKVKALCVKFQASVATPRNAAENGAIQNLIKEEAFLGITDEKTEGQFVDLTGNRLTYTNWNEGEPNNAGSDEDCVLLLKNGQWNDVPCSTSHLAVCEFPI
The target in assay [3] is T2, CD23 (UniProt P06734 48-321).
T2 sequence (looked up): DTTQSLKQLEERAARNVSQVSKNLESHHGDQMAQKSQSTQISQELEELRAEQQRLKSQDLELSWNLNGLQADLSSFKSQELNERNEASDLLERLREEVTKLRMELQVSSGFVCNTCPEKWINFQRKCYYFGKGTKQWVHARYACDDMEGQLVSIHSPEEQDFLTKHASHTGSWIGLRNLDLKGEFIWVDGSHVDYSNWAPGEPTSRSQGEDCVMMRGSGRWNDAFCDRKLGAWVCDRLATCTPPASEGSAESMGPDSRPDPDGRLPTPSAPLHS

The target of assay [4] is T3, dectin-1 (UniProt Q9BXN2-2 66-201).
T3 construct: also called dec-1
T3 sequence (looked up): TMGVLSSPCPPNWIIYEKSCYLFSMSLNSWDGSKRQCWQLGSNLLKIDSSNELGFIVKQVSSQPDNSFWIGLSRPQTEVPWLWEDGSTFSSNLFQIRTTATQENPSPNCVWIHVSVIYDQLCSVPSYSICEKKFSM

In assay [5] the target is T4, clec-4a (UniProt Q9UMR7 70-237).
T4 construct: also called DCIR
T4 sequence (looked up): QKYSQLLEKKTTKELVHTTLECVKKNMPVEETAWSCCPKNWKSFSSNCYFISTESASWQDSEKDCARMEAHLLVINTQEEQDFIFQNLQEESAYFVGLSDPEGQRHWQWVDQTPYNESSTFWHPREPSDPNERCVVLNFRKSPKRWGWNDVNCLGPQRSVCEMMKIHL

Assay [6] has as its target T5, tetrameric human DC-SIGN (human, UniProt Q9NNX6 66-404).
T5 sequence (looked up): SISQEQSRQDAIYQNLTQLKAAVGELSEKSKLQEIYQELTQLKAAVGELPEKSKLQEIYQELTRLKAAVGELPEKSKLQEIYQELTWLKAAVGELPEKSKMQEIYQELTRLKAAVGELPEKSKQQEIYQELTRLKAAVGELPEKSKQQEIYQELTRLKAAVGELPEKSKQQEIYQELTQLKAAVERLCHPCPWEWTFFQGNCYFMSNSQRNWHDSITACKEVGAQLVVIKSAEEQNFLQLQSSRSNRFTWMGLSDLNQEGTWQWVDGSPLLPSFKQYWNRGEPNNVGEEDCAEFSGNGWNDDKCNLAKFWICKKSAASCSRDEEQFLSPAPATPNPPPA

Assay [7] deals with Siglec-3 (UniProt P20138 18-259).
Chain of Siglec-3 (P20138 18-259 limits assumed): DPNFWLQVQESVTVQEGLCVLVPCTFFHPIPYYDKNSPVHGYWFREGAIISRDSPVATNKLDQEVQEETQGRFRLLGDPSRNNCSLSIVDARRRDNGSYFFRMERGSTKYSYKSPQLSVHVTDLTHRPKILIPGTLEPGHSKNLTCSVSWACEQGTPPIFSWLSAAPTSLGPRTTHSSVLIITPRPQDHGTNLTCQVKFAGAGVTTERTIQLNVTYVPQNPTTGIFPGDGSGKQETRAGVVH
The target in assay [8] is T6, Siglec-2 (UniProt P20273 20-687).
T6 construct: also called CD22

In assay [9] the target is T7, clec-4d (UniProt Q8WXI8 39-215).
T7 sequence (looked up): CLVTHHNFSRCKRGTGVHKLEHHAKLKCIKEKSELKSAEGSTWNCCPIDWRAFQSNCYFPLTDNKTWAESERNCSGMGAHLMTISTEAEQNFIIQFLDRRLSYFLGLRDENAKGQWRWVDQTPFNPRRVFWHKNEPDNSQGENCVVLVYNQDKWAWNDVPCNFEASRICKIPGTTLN

Assay [10] has as its target T8, human FcγRIIB (human, UniProt P31994 46-217).
T8 construct: also called CD32B
T8 sequence (looked up): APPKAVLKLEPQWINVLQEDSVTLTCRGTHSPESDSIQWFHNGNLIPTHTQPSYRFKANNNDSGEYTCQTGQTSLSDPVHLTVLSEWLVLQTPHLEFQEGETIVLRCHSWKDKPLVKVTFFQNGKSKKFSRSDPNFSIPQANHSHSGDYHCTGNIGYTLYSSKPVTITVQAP

Assay [11] has as its target human FcγRIIIA (human, UniProt P08637 17-208).
In assay [12] the target is human FcγRIIIB (human, UniProt O75015 17-200).
Chain of human FcγRIIIB (O75015 17-200 limits assumed): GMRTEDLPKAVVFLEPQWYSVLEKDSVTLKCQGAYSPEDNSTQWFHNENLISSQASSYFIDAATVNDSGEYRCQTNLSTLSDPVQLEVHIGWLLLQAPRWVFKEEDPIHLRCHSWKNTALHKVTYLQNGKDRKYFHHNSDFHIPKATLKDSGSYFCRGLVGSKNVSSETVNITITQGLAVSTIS
Assay [13] has as its target T9, human FcγRIIA (human, UniProt P12318 36-218).
T9 sequence (looked up): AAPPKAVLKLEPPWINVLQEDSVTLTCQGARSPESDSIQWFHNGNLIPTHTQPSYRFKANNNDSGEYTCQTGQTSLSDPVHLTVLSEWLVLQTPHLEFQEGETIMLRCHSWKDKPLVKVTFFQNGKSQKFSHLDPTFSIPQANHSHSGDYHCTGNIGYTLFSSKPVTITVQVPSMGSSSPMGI

Chain of human FcγRIIIA (P08637 17-208 limits assumed): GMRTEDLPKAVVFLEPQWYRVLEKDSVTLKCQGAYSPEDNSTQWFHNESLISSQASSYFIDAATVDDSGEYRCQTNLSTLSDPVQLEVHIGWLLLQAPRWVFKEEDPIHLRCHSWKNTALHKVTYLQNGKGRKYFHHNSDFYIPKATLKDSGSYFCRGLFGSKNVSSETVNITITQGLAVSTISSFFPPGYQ

B1: [change]/[change]/[change] (other)
chain: NKTHTCPPCPAPELLGGPSVFLFPPKPKDTLMISRTPEVTCVVVDVSHEDPEVKFNWYVDGVEVHNAKTKPREEQYNSTYRVVSVLTVCLQDWLNGKEYKCKVSNKALPAPIEKTISKAKGQPREPQVYTLPPSREEMTKNQVSLTCLVKGFYPSDIAVEWESNGQPENNYKTTPPVLDSDGSFFLYSKLTVDKSRWQQGNVFSCSVMHEALHNHYTQKSLSLSPGKLVLGPPLYAVSLVMSDTAGTAY
Consider B1, for which the binding result in [1], in [2], in assay [3], in assay [4], in assay [5] and in assay [6] was “no binding” in each case. Moreover, the binding result in assay [7] was “no binding”; in assay [8], “no binding”; in assay [9], “no binding”; in assay [10] it was “no binding”; in [11], “binds”.

B2: [change]/[change]/[change]/[change] (other)
chain: NKTHTCPPCPAPELLGGPSVFLFPPKPKDTLMISRTPEVTCVVVDVSHEDPEVKFNWYVDGVEVHNAKTKPREEQYASTYRVVSVLTVCLQDWLNGKEYKCKVSNKALPAPIEKTISKAKGQPREPQVYTLPPSREEMTKNQVSLTCLVKGFYPSDIAVEWESNGQPENNYKTTPPVLDSDGSFFLYSKLTVDKSRWQQGNVFSCSVMHEALHNHYTQKSLSLSPGKLVLGPPLYAVSLVMSDTAGTAY
With B2, the binding result in assay [1], in [2], in assay [4], in assay [5], in [6] and in [10] was “no binding” in each case. The binding result in assay [12], in [13] and in [11] was “no binding” each time.

The values above are taken from patent US20210024615A1 (LIVERPOOL SCHOOL OF TROPICAL MEDICINE, published 2021).
